Assay results from US9322042B2, “Thermostable cellulases, and mutants thereof, capable of hydrolyzing cellulose in ionic liquid” (The Regents of the University of California, priority 2009, dated 2016).

B1: Tma Cel5A: wild-type cellulase of Thermatoga maritima strain MSB8 (Accession No. NP_229549); SEQ ID NO: 20 (protein, listed as Thermotoga maritima)
chain: MGVDPFERNKILGRGINIGNALEAPNEGDWGVVIKDEFFDIIKEAGFSHVRIPIRWSTHAYAFPPYKIMDRFFKRVDEVINGALKRGLAVVINIHHYEELMNDPEEHKERFLALWKQIADRYKDYPETLFFEILNEPHGNLTPEKWNELLEEALKVIRSIDKKHTIIIGTAEWGGISALEKLSVPKWEKNSIVTIHYYNPFEFTHQGAEWVEGSEKWLGRKWGSPDDQKHLIEEFNFIEEWSKKNKRPIYIGEFGAYRKADLESRIKWTSFVVREMEKRRWSWAYWEFCSGFGVYDTLRKTWNKDLLEALIGGDSIE
B2: Pho EG: cellulase of Pyrococcus horikoshii strain OT3 (Accession No. NP_143072); SEQ ID NO: 21 (protein, listed as Pyrococcus horikoshii)
chain: MEGNTILKIVLICTILAGLFGQVVPVYAENTTYQTPTGIYYEVRGDTIYMINVTSGEETPIHLFGVNWFGFETPNHVVHGLWKRNWEDMLLQIKSLGFNAIRLPFCTESVKPGTQPIGIDYSKNPDLRGLDSLQIMEKIIKKAGDLGIFVLLDYHRIGCTHIEPLWYTEDFSEEDFINTWIEVAKRFGKYWNVIGADLKNEPHSVTSPPAAYTDGTGATWGMGNPATDWNLAAERIGKAILKVAPHWLIFVEGTQFTNPKTDSSYKWGYNAWWGGNLMAVKDYPVNLPRNKLVYSPHVYGPDVYNQPYFGPAKGFPDNLPDIWYHHFGYVKLELGYSVVIGEFGGKYGHGGDPRDVIWQNKLVDWMIENKFCDFFYWSWNPDSGDTGGILQDDWTTIWEDKYNNLKRLMDSCSKSSSSTQSVIRSTTPTKSNTSKKICGPAILIILAVFSLLLRRAPR

Legend:
Assay type in all cases: biochemical
[1] = Enzymatic hydrolysis of CMC (DNS / Azo-CMC reducing sugar assay) in the presence of EMIM Acetate ([C2mim][OAc])
Method: (v/v) were incubated at 37° C. (T. viride), 80° C. (TmaEG, Pho EG). The specific activities were calculated as mmoles of reducing sugars formed per min per mg of enzyme. The specific activities are reported as percentages of residual specific activity, taking the specific activity of IL free enzyme a 100% activity. Error bars indicate the standard deviation.
The enzymetic activity of the cellulases of Trichoderma viride, Thermatoga maritima, and Pyrococcus horikoshii are measured under varying concentrations of EMIM Acetate. […] The enzymes activities are calculated using both the Azo-CMC assay and the DNS assay. […] At 10% EMIM Acetate the % specific activity of T. viride endoglucanase is near 0%, while at 20% EMIM Acetate the % specific activity of T. maritima endoglucanase is nearly 40%.
Enzymatic activity is measured on soluble polysaccharide substrates, CMC, using the dinitrosalicylic acid reducing sugar assay. Briefly, CMC (2% w/v) in […] acetate buffer, (100 mM, pH 4.8) is incubated with enzyme at 80° C. for 30 minutes for Tma and 37° C. and 10 minutes for T. viride. The solution is cooled down to 4° C. and 80 μL of DNS solution is added. The reactants are incubated at 95° C. for 5 minutes and cooled down to room temperature before the absorbance is read at 540 nm. The reducing sugar concentration in the sample is calculated from its absorbance using the standard curve of D-glucose. All experiments are run in triplicate.
The purified recombinant enzymes are assayed in the presence of [C2mim][OAc] and the specific activity results are compared with the cellulase from T. viride. [C2mim][OAc] was selected as the IL of choice. The assays are performed under optimum pH and temperatures for T. maritima and T. viride enzymes. Optimum pH and temperatures for T. maritima Cel5A is pH 4.8 and 80° C., respectively. Optimum pH and temperatures for T. viride cellulase is pH 4.5 and 37° C., respectively. The Pho EG is assayed at 80° C. where its specific activity is around 10% less than at 95° C. […] In the presence of 5% (v/v) [C2mim][OAc] the enzyme loses 60% of its activity while it is undetectable in the presence of 10% (v/v) [C2mim][OAc]. Both the recombinant hyperthermophilic enzymes behave very differently. Tma Cel5A in the presence of 5% [C2mim][OAc] loses 24% of its specific activity. At 15% IL (v/v), Tma Cel5A retains 50% of its specific activity. The highest residual activities are observed with Pho EG which retains 100% activity in 20% IL (v/v) (FIG. 6).
(§1) Enzymatic activity is measured on soluble polysaccharide substrates, CMC, using the 3,5-dinitrosalicylic acid (DNS) reducing sugar assay. Briefly, 2% CMC (w/v) in […] acetate buffer, (100 mM, pH 4.5 and pH 4.8 for T. viride and Tma, respectively, and 100 mM MES buffer, pH 6.4 for P. hori EG) is incubated at 80° C. for 30 min for Tma Cel5A and Pho enzymes and 37° C. and 10 min for T. viride. The solution is cooled down to 4° C. and […] of DNS solution is added. The reactants are incubated at 95° C. for 5 min and cooled down to room temperature before the absorbance is read at 540 nm. The reducing sugar concentration in the sample is calculated from its absorbance using the standard curve of D-glucose and cellobiose. For hydrolysis reactions in the presence of [C2mim][OAc], control reactions with CMC in the presence of IL but without no enzyme is subtracted from each measurement. The solid substrate (Avicel and corn stover) hydrolysis reactions are conducted at 80° C. for 15 h for the recombinant enzymes and at 37° C. for 8 h in the case of T. viride cellulose at the optimum pH for each enzyme. The reaction products are monitored using an Agilent 1200 HPLC equipped with Varian 380-LC Evaporative Light Scattering Detector. The total reaction volumes are […] and shaken at 900 rpm at temperature controlled shakers. Enzyme loadings are 0.4 mg per g of glucan and each data point is measured in triplicate. […]

[2] = Activity assay on insoluble substrate: Avicel
Excerpt: (§2) Corn stover refers to stalks, leaves and cobs that remain in the fields after the corn kernel harvest and is the largest quantity of biomass residue in the United States and as such is also a LC-biomass source for producing cellulosic ethanol in the United States. [C2mim][OAc] pretreated corn stover is used as a substrate to verify enzymatic efficiency on IL-pretreated biomass and a comparison made with [C2mim][OAc] pretreated Avicel. Avicel is a commercially available microcrystalline cellulose and a good model substrate for analysis. Similar assays are done in the presence of [C2mim][OAc] to simulate real biomass processing and saccharification scenarios. The assay products for the reactions in the presence of IL are detected by high performance anion exchange chromatography (HPAEC). The enzymatic hydrolysis reaction is carried out for 8 h for the T. viride cellulase and 15 h for the hyperthermophilic enzymes, taking into account the half-lives of these enzymes. To compare the amounts of total sugars formed between different reactions, the sum of glucose, xylose and cellobiose are calculated and reported as mmoles of sugars formed per min per mg of enzyme used (Table 7). A comparison of assay results between pretreated and untreated substrate indicates a 2-6 fold increase in hydrolysis products after pretreatment irrespective of the enzyme used, thereby confirming that IL pretreatment can increase the efficiency of hydrolysis of cellulose recovered from biomass. […] The catalytic efficiency of the fungal enzyme however, decreases with increasing IL concentration in the reaction mix. After normalizing for the reaction time and enzyme amounts, the amount of sugars formed is undetectable at 15% [C2mim][OAc]. […] The yield of sugars from Tma Cel5A hydrolysis of pretreated Avicel in the presence of 15% IL decreases by 43% compared to 0% IL, while the decrease is only 10% in the case of Pho EG on the same substrate under similar conditions (Table 7).
(§3) The hydrolysis reactions are performed under pH and temperatures for each enzyme as described herein. The reactions are run over a 14 h period with 5-10 mg of enzyme with 6% (w/v) enzyme loading in optimum buffer for each enzyme and run in duplicate. The reaction products are measured on a HPLC and HPAEC. The amounts of sugars detected are shown in mmoles and normalized with regards to amount of enzyme and time of reaction. Different reactions under each enzyme were run under exactly similar conditions.
as §1

[3] = Activity assay on insoluble substrate: corn stover
Excerpt: as §2, §3, §1

[4] = Enzyme stability: overnight pre-incubation in [C2mim][OAc] and half-life; conditions: pre-incubation overnight (15 h) in 15% [C2mim][OAc]

| Molecule | activity in 2.9% EMIM Acetate compared with 0% [1] | Sugars produced (sum of glucose, cellobiose and xylose) ([2]; 0% [C2mim][OAc]) [µmol/min/mg] | Sugars produced (sum of glucose, cellobiose and xylose) ([2]; 5% [C2mim][OAc]) [µmol/min/mg] | Sugars produced (sum of glucose, cellobiose and xylose) ([2]; 10% [C2mim][OAc]) [µmol/min/mg] | Sugars produced (sum of glucose, cellobiose and xylose) ([2]; 15% [C2mim][OAc]) [µmol/min/mg] | Sugars produced (sum of glucose, cellobiose and xylose) ([3]; 0% [C2mim][OAc]) [µmol/min/mg] | Sugars produced (sum of glucose, cellobiose and xylose) ([3]; 5% [C2mim][OAc]) [µmol/min/mg] | Sugars produced (sum of glucose, cellobiose and xylose) ([3]; 10% [C2mim][OAc]) [µmol/min/mg] | Sugars produced (sum of glucose, cellobiose and xylose) ([3]; 15% [C2mim][OAc]) [µmol/min/mg] | activity retained after pre-incubation [4] [%] | other results |
| --- | --- | --- | --- | --- | --- | --- | --- | --- | --- | --- | --- |
| B1 | at least as active in 2.9% EMIM Acetate as in 0% EMIM Acetate | 1.1 ± 0.1 | 1.0 ± 0.2 | 0.9 ± 0.1 | 0.6 ± 0.1 | 3 ± 0.9 | 2 ± 0.3 | 2.4 ± 0.8 | 2.3 ± 0.5 | 44 | Optimum pH [1]: 4.8; Optimum temperature [1]: 80 °C; tolerance to EMIM Acetate compared to T. viride [1]: more tolerant to EMIM Acetate; % Specific Activity ([1]; 0% EMIM Acetate): 100%; % Specific Activity (Table 5) ([1]; 0% EMIM Acetate): 31 ± 2^ %; activity in 2.9% EMIM Acetate compared with 0% ([1]; listed as T. maritima): remain unchanged; loss of specific activity ([1]; 5% (v/v) [C2mim][OAc]): 24%; % Specific Activity ([1]; 5% EMIM Acetate): 77%; % Specific Activity (Table 5) ([1]; 5% EMIM Acetate): 24 ± 1^ %; % Specific Activity ([1]; 10% EMIM Acetate): 65%; % Specific Activity (Table 5) ([1]; 10% EMIM Acetate): 20 ± 0.8%; % Specific Activity ([1]; 15% EMIM Acetate): 50%; % Specific Activity (Table 5) ([1]; 15% EMIM Acetate): 15 ± 0.5%; % Specific Activity (Table 5) ([1]; 20% EMIM Acetate): 13 ± 0.9%; % Specific Activity ([1]; 20% EMIM Acetate, listed as T. maritima endoglucanase): 45% |
| B2 | at least as active in 2.9% EMIM Acetate as in 0% EMIM Acetate | 0.54 ± 0.1 | 0.5 ± 0.1 | 0.52 ± 0.1 | 0.6 ± 0.08 | 0.58 ± 0.1 | 0.59 ± 0.1 | 0.57 ± 0.1 | 0.59 ± 0.1 | 70 | activity in 2.9% EMIM Acetate compared with 0% ([1]; listed as P. horikoshii): remain unchanged; % Specific Activity ([1]; 20% EMIM Acetate): 100%; specific activity at 80° C. less than at 95° C. ([1]; 80° C. vs 95° C.): around 10% |
